Data taken from the DeepSol protein solubility set.

Assay: soluble on expression in E. coli; label from the status in PepcDB or PDB records

Row | Sequence | soluble on expression in E. coli
1 | MKEKIITYLEEKGKSSVDDLASSLDMAGAQKFPSLIKEISKLESKGKLRFEQDGTISLRKKKEKKDQVTVTGIFRANKAGFGFVSIDEAEEDLFIGRNDVGHAVDGDTVEVAIKKVANRLKGTAAEARVVKIVEHSLKAVVGRFVLDDEKPPYIGYIKSKNQKITQKIYIKKEPIVLDGTEIIKVAIEKYPTRRYDYFVASVEDVIGHQDDVGIDVLEVLESMDIVSEFPDAVLKEAQSVPDAPSEKDLIGRVDLRKEITFTIDGADAKDLDDAVHVKLLDNGNFELGVHIADVSYYVKEGSALDGEALARGTSVYVTDRVVPMLPERLSNGICSLNPNLDRLTQSAIMEIDKHGRVLHYQITQTVINTSFRMTYSDVNAIIAGDKELTEQYDKIVPSIHYMVTLHKILEKMRERRGALNFDTSEAKILVNDKGFPMDIVLRQRGLAERMIESFMLAANECVAEHFAKKNLPFIYRIHEEPKAEKLQKFMDYASIFGVSIQGTASKISQTALQDFMKKIEGQPGSDVLSMMLLRSMQQARYSEYNHGHYGLAAQYYTHFTSPIRRYPDLLVHRLVREYDKANSEKVEHFAQIIPEIASQTSSLERRAIDAERVVEAMKKAEYMEEYVGQEFTGVVSSVVKFGLFVELPNTIEGLIHMTTLPEFYQFNERTLSLQGEKSGKVFRVGQSIKVKVLKADKETGDIDFAYLPSDFDIIEKLSRSKKEKPRPSRRSGDSKTKANKRSKRSALSQKKKKKPFYKEAVKKGGKHGKGSRKRRRSK | soluble
2 | MKELHTSELVEVSGGKFHIFAQGGGNLGKKDMVAVGKIGASYSPNNSGVEFSVSKQFGYVQGLGVQFSKPTFGISKKW | not soluble
3 | MKERLEHYSTSSIYSGFEVYLPLVLQTITDVIIAENIKSKKETGFKLYEHFTSRIKSEASMIEKCQRKQLPLTSKSALKIIKDSIGIRIICGFIDDIYRMVDLLKSIPGMSVNTEKDYILNAKPNGYRSYHLILELETHFPDILGEKKGCYFIEVQLRTIAQDSWASLEHQMKYKHQVANAEMITRELKRCADELASCDVTMQTIRQLIQETTEEE | not soluble
4 | MKESLKDRIRLWKRLYVNAFENALNAIPNVKGVLLAYNTNIDAIKYLDADDLEKRVTEKGKEKVFEIIENPPEKISSIEELLGGILRSIKLGKAMEWFVESEEVRRYLREWGWDELRIGGQAGIMANLLGGVYRIPTIVHVPQNPKLQAELFVDGPIYVPVFEGNKLKLVHPKDAIAEEEELIHYIYEFPRGFQVFDVQAPRENRFIANADDYNARVYMRREFREGFEEITRNVELAIISGLQVLKEYYPDGTTYKDVLDRVESHLNILNRYNVKSHFEFAYTANRRVREALVELLPKFTSVGLNEVELASIMEIIGDEELAKEVLEGHIFSVIDAMNVLMDETGIERIHFHTYGYYLALTQYRGEEVRDALLFASLAAAAKAMKGNLERIEQIRDALSVPTNERAIVLEEELEKEFTEFENGLIDMVDRQLAFVPTKIVASPKSTVGIGDTISSSAFVSEFGMRKR | soluble
5 | MKEYIAFDIGGTQIKYGIVSEIGRVLKRQTVATEIHLGGEQIIQKLIYVSKKIMNEHTITGIGISTAGIVDINKGIVTGGADHIPGYSTIPIIDRLQEILKVPVSIDNDVNCAAFGEKWNGSGREKDNFIMLTLGTGIGGAIFIDGKLYRGHSFSAGEWGNMLIEEKTFEEVASISGLIRLVSKYKGKGKWNGKRIFELYDKGDREVAQAVGIFFKHLAIGISNLAYIFNPETIIIGGGITDRGNEFLKEVKEEVSKYLNQEIYNNCEIELAQNGNCAGMIGAIYHFLHHHK | not soluble
6 | MKEYRLTDWLPTTKKEVELRGWDELDVILFSGDAYVDHPSFGAAVIGRILEAEGLKVAIIPQPNWRDDLRDFRKLGRPRLFFGISAGSMDSMVNKYTANKRLRSEDAYTPDGRPDMRPEYPSIVYSQILKRLYPDVPVILGSIEASLRRLSHYDYWQDKVQKSILCDSGADLLIYGMGEKPIVELTRKMKELLPAEDASLTAGELKKIAGTIPQTAYLCRATEWTPAADDIQLYSHEECLADKKKQASNFRHIEEESNKYAASRITQEVDNKVVVVNPPYPPMSQEELDHSYDLPYTRLPHPKYKGKRIPAYDMIKFSVNIHRGCFGGCAFCTISAHQGKFIVSRSKKSILNEVKEVMQLPDFKGYLSDLGGPSANMYQMKGKDEAICKKCKRPSCIHPKVCPNLNSDHCPLLDIYKAVDAIPGIKKSFIGSGVRYDLLLHQSKDAATNRSTAEYTRELIVNHVSGRLKVAPEHTSDRVLSIMRKPSFEQFETFKKIFDRINREENLRQQLIPYFISSHPGCKEEDMAELAVITKRLDFHLEQVQDFTPTPMTVATEAWYSGFHPYTLEPVFSAKTQREKLAQRQFFFWYKPEERKNILNELRRIGRQDLIDKLYGKRNK | not soluble
7 | MKFDKPAGENPIDQLKVVGRPHDRIDGPLKTTGTARYAYEWHEEAPNAAYGYIVGSAIAKGRLTALDTDAAQKAPGVLAVITASNAGALGKGDKNTARLLGGPTIEHYHQAIALVVAETFEQARAAASLVQAHYRRNKGAYSLADEKQAVNQPPEDTPDKNVGDFDGAFTSAAVKIDATYTTPDQSHMAMEPHASMAVWDGNKLTLWTSNQMIDWCRTDLAKTLKVPVENVRIISPYIGGGFGGKLFLRSDALLAALAARAVKRPVKVMLPRPSIPNNTTHRPATLQHLRIGADQSGKITAISHESWSGNLPGGTPETAVQQSELLYAGANRHTGLRLATLDLPEGNAMRAPGEAPGLMALEIAIDELAEKAGIDPVEFRILNDTQVDPADPTRCFSRRQLIECLRTGADKFGWKQRNATPGQVRDGEWLVGHGVAAGFRNNLLEKSGARVHLEQNGTVTVETDMTDIGTGSYTILAQTAAEMLGVPLEQVAVHLGDSSFPVSAGSGGQWGANTSTSGVYAACMKLREMIASAVGFDPEQSQFADGKITNGTRSATLHEATAGGRLTAEESIEFGTLSKEYQQSTFAGHFVEVGVHSATGEVRVRRMLAVCAAGRILNPKTARSQVIGAMTMGMGAALMEELAVDDRLGYFVNHDMAGYEVPVHADIPKQEVIFLDDTDPISSPMKAKGVGELGLCGVSAAIANAVYNATGIRVRDYPITLDKLLDKLPDVV | not soluble
8 | MKFDPTSPSLNIMLANPRGFCAGVDRAISIVERALELFSPPIYVRHEVVHNRYVVQNLKDRGAVFVEELDQVPDNNIVIFSAHGVSQAVRAEAKARGLRVFDATCPLVTKVHLQVTRASRKGIECILIGHAGHPEVEGTMGQYDNPNGGVYLIESPADVETLEVRDPNNLCFVTQTTLSVDDTLDIISALLKRFPSIEGPRKDDICYATQNRQDAVRNLSADVDLLIVVGSKNSSNSNRLRELALKTGTQSYLVDTADDIDSSWFENITKVAVTAGASAPEVLVQQVVQAIAKLAPSVVTEVEGRKEDTVFAVPAELR | soluble
9 | MKFKELSPSTYAEEFIRSKILVEEDGTAIKSQRELSADLGVSRNAIKYALKRLQYDGDIRIKERQGIEINKKRDINLLSMEPMSKELKQAEMHIKHISSEIIKTPDSLVDFFGNATELAEIKRIRLDDKDVVSFEISYLDNRKFEDIASVNFNECSLYQILENRYGKLPIYGYENITCVLANESLATKLNVKINTPLYQVDSYNYSDDDKAVEHTAQFLPANKIKYHFKAKNIFDYQEDDDDDII | not soluble
10 | MKFKLFLGSSFFGVATLLIACGTGRFDQIDDGKIKLAVVTSPSAASSLQTLLDQYNNTKAPADYPVEVVSLDSTGSYTKGKFDTQKRLAAKDKNNFYN | not soluble
11 | MKFLTFVNRVDWWLNVKKLLMGNEAIAYGALEAGVSFATGYPGTPSTEVIETIARLKPEVFAEWAPNEKVALEEAAGVSYAGLRSLVTMKCVGLNVAADPLMSLAYSGVEGGLVILVADDPGPHTSQTEQDDRYYGKLALLPVLEPYDPQEAHDLIIYAYELSEKYKVPIIFRTTTRVNHTTADVEVGEFKELKREPKFKKDIERYVRASMEGNRKRHKWLNETLKRIEEEFNTLRFNWIEGEGRVGIIVEGAPYNYVKEVVPQIEEDFKILKLSTPHPLPRKLVVEFLRSVDVALVVEEGAPFLEEEIKVVAYEEGLNVPIYGKRTGHLPLEGELTPRLVRNAILKLLGKEREEVKLPKEVEEAKALAPKRPPVMCPGCPHRGTYRALLDALRELGYGKFDIPIHGDIGCYALSLLPPLEAIWTEFVMGASISLANGQSVAMGKKIVATIGDSTFFHNGIQPLIDAVYKDLDVLVIILDNRTTAMTGHQPHPGTGGSETGRKFREIDIESVVRGIGVKYVKTVDPYNLKETKEAIKEAMKVKGPAVIIAKRECVIPVIRRGEIGEIPVVVEDRCTGCKACILLTGCPALVYEPEKKKVRIDPLICTGCGVCNQLCPFDAI | not soluble
12 | MKFPGQRKSKHYFPVHARDPLVIQAQENKKMSRTHIIGIDQTLVDIEAKVDSDLIERYGLSKGHSLVIDDHAAEALYNELKEQRLITNEYAGGTIGNTLHNYSVLADDRSTLLGVMSQDIKIGSYGYRYLCNTSSRMDLNYLQGVDGAIGRCFALITEDGERTFAISEGQMNQLRPDSIPEKIFASASALVITAYLVRCKEGDPMPEATMRAIEYAKKYDVPVVLTLGTKFVIQDDPKFWQEFLRDHVTVVAMNEDEALALTGESDPLAASDKALDWVDLVLCTAGPVGLFMAGYTEDSAKRETSLPLLPGSVPEFNRYEFSRPARKESCINPIRVYSHISPYMGGPEKIKNTNGAGDAALSALLHDMAANKYHKENVPNSSKHQHEFLTYSSFSQVCKYSNRASYEVLAQHSPRLSRGLPEREDSLEEAYWER | not soluble
13 | MKFPGQRKSKHYFPVHTRDPLVNQINQTPKLERTHLIGVGQTIVDIEAKVDDDFLNRHQLSKGHSLVLEESKAEALYKELFERNLISHEYPGDTIGNTLHNYSVLADSKSILLGVMSEDIKIGSYAYRYLCNTTSRMDLDYLQPVQGPIGRCYTLISEDGERTFAINEGDMNQLCPTHVPEHIFEKASALVISSYLVRGKEGDPMMDAVRKAIDCAKSHNVPVVLTLGTKYVIEGKAEWWQTFLKENVTVVAMNEEEAEALTGEKDPLLAADKALEWVDLVLCTAGPIGLYMAGFTEESIKRETSKPLLPGNIPEFNRFEYSRPMVKALCKKPIKVSSHIAPYMGGPVEIKNTNGAGDAALSALLHDMAANYYHKENVPNSSKHDAEYLTYSSFSQICKYSNRASYEVLTQHSPRLSKSMPEREDCLEEAYWER | not soluble
14 | MKHLVICIALLTVGACCFAQQKKVASHKAASGNPVFQGWYADPEGIIYDDTYWIFPTWSDLYENQTFFDCFSSKDLVNWTKHASVLDTTAVKWAKKAMWAPSVIRKNGKYYIFFGANDVHEGEIGGIGVAVSDRPEGPYKDLLGKPLINEIVNGAQPIDQFVYNDNGHYYMYYGGWGHCNVVQLNDDFTGLVPFEDGTVYKEVTPENYVEGPFMFKKDGKYYFMWSEGGWGGPDYSVAYAISDSPFGPFKRVAKILQQDPSVATSAGHHSLLHAPGTDDYYIVYHRRPLNDNARDHRVTCIDKMTFDKDGFINPVKMTFEGVPAQKIKKSKKK | not soluble
15 | MKIAIVTDSTAYLPERIKDHPNLFVIPIPVILDGKIYNEGIDIEADEYYALLNNSKEFPTTSQPALGEVLELYKSIAEQGYDTIISIHLSSGISGFVHTLHGLTDEIPGVALYPYDSKITSMPMGHMVEAALDLTEEKASLEEIFAKLDLIRDNTYAYLIVEDLNNLVRGGRLTNGAALIAGLLKIKPILTFEDGKIVLFEKIRSTKKAFARAEKIIGERNAGIEAPVKLYVIHANNRIVAEKEQAKLQKLYPNAEIEIGHFGPVIGTHLGEKAIGLAISAQ | not soluble
16 | MKIAVLGATGRAGSAIVAEARRRGHEVLAVVRDPQKAADRLGATVATLVKEPLVLTEADLDSVDAVVDALSVPWGSGRGYLHLDFATHLVSLLRNSDTLAVFILGSASLAMPGADHPMILDFPESAASQPWYDGALYQYYEYQFLQMNANVNWIGISPSEAFPSGPATSYVAGKDTLLVGEDGQSHITTGNMALAILDQLEHPTAIRDRIVVRLEHHHHHH | not soluble
